Laboratory results from patent US10864252B2, “Anti-SSX-2 T cell receptors and related materials and methods of use” (The United States of America, as represented by the …, priority 2010, dated 2020).

B1: SSX2-TCR-Co Op: codon-optimized anti-SSX-2 TCR alpha and beta chains encoded by SEQ ID NO: 29, tested as transduced human PBLs (protein)
chain: MALSSLLKVVTASLWLGPGIAQKITQTQPGMFVQEKEAVTLDCTYDTSDPSYGLFWYKQPSSGEMIFLIYQGSYDQQNATEGRYSLNFQKARKSANLVISASQLGDSAMYFCAMTSGFGNEKLTFGTGTRLTIIPNIQNPDPAVYQLRDSKSSDKSVCLFTDFDSQTNVSQSKDSDVYITDKTVLDMRSMDFKSNSAVAWSNKSDFACANAFNNSIIPEDTFFPSPESSCDVKLVEKSFETDTNLNFQNLSVIGFRILLLKVAGFNLLMTLRLWSSRAKRSGSGATNFSLLKQAGDVEENPGPMGPGLLHWMALCLLGTGHGDAMVIQNPRYQVTQFGKPVTLSCSQTLNHNVMYWYQQKSSQAPKLLFHYYDKDFNNEADTPDNFQSRRPNTSFCFLDIRSPGLGDAAMYLCATSRGQGGQPQHFGDGTRLSILEDLNKVFPPEVAVFEPSEAEISHTQKATLVCLATGFFPDHVELSWWVNGKEVHSGVSTDPQPLKEQPALNDSRYCLSSRLRVSATFWQNPRNHFRCQVQFYGLSENDEWTQDRAKPVTQIVSAEAWGRADCGFTSVSYQQGVLSATILYEILLGKATLYAVLVSALVLMAMVKRKDF
B2: SSX2-TCR-MCR: codon-optimized human/mouse chimeric anti-SSX-2 TCR with mouse constant region, encoded by SEQ ID NO: 30, tested as transduced human PBLs (protein)
chain: MALSSLLKVVTASLWLGPGIAQKITQTQPGMFVQEKEAVTLDCTYDTSDPSYGLFWYKQPSSGEMIFLIYQGSYDQQNATEGRYSLNFQKARKSANLVISASQLGDSAMYFCAMTSGFGNEKLTFGTGTRLTIIPNDIQNPEPAVYQLKDPRSQDSTLCLFTDFDSQINVPKTMESGTFITDKTVLDMKAMDSKSNGAIAWSNQTSFTCQDIFKETNATYPSSDVPCDATLTEKSFETDMNLNFQNLSVMGLRILLLKVAGFNLLMTLRLWSSRAKRSGSGATNFSLLKQAGDVEENPGPMGPGLLHWMALCLLGTGHGDAMVIQNPRYQVTQFGKPVTLSCSQTLNHNVMYWYQQKSSQAPKLLFHYYDKDFNNEADTPDNFQSRRPNTSFCFLDIRSPGLGDAAMYLCATSRGQGGQPQHFGDGTRLSILEDLRNVTPPKVSLFEPSKAEIANKQKATLVCLARGFFPDHVELSWWVNGKEVHSGVSTDPQAYKESNYSYCLSSRLRVSATFWHNPRNHFRCQVQFHGLSEEDKWPEGSPKPVTQNISAEAWGRACGITSSYQQGVLSATILYEILLGKATLYAVLVSTLVVMAMVKRKNS

How the values were obtained:
[1] = test system: COS-A2; test: IFN-γ release, TCR-transduced PBL co-cultured with COS-A2; assay type: cell-based; settings: co-cultured with Cos-A2
From the text: (§1) SSX-2 TCR-transduced PBLs were co-cultured with various tumor cell lines. […] FIGS. 4A and 4B, FIG. 11, and Tables 3 and 4 show additional results of PBLs from human donors that were transduced with the SSX-2 TCR of Example 2 when these PBLs were co-cultured with various tumor cells. PBLs that were untransduced (UT) or transduced with a vector comprising SEQ ID NO: 27 (SSX-2 TCR), SEQ ID NO: 29 (codon-optimized SSX-2 TCR), or SEQ ID NO: 30 (codon-optimized SSX-2 TCR including mouse constant region) were co-cultured with various tumor cell lines. Tables 5 and 6 show the resulting interferon-γ levels (pg/ml) measured with respect to PBL from two different donors.

[2] = test system: 293-A2; test: IFN-γ release, co-culture with 293-A2; assay type: cell-based; settings: co-cultured with 293-A2
From the text: as §1

[3] = test system: T331A mel; test: IFN-γ release, co-culture with T331A; assay type: cell-based; settings: co-cultured with T331A mel
From the text: as §1

[4] = test system: COS-A2 SSX2; test: IFN-γ release, co-culture with COS-A2 SSX2; assay type: cell-based; settings: co-cultured with COS-A2-SSX2
From the text: as §1

[5] = test system: 624 mel; test: IFN-γ release, co-culture with 624 melanoma; assay type: cell-based; settings: co-cultured with 624 mel
From the text: as §1

[6] = test system: 938-A2 mel; test: IFN-γ release, co-culture with 938-A2 melanoma; assay type: cell-based; settings: co-cultured with 938-A2 mel
From the text: as §1

[7] = test system: 938 mel; test: IFN-γ release, co-culture with 938; assay type: cell-based; settings: co-cultured with 938 mel
From the text: as §1

[8] = test system: 293-A2 SSX2; test: IFN-γ release, co-culture with 293-A2 SSX2; assay type: cell-based; settings: co-cultured with 293-A2-SSX2
From the text: as §1

[9] = test system: U251 Glioma; test: IFN-γ release, co-culture with U251 glioma; assay type: cell-based; settings: co-cultured with U251 Glioma
From the text: as §1

[10] = test system: SK MEL37; test: IFN-γ release, co-culture with SK MEL37 melanoma; assay type: cell-based
From the text: as §1

[11] = test system: SKOV3 Ovarian; test: IFN-γ release, co-culture with SKOV3 ovarian; assay type: cell-based; settings: co-cultured with SKOV3 Ovarian
From the text: as §1

[12] = IFN-γ release, transduced PBL without target cells (medium / T cell alone); assay type: cell-based, human; settings: T cell alone
From the text: as §1

[13] = test system: K562; test: IFN-γ release, co-culture with K562; assay type: cell-based; settings: co-cultured with K562
From the text: (§2) PBLs that were untransduced (UT) or transduced with a vector comprising SEQ ID NO: 27 (SSX-2 TCR), SEQ ID NO: 29 (codon-optimized SSX-2 TCR), or SEQ ID NO: 30 (codon-optimized SSX-2 TCR including mouse constant region) were co-cultured with various tumor cell lines. Tables 5 and 6 show the resulting interferon-γ levels (pg/ml) measured with respect to PBL from two different donors.

[14] = test system: Lau 149 mel; test: IFN-γ release, co-culture with Lau 149 mel; assay type: cell-based; settings: co-cultured with Lau 149 mel
From the text: as §2

[15] = test system: K562-A2-Erythroleukemia; test: IFN-γ release, co-culture with K562-A2 erythroleukemia; assay type: cell-based; settings: co-cultured with K562-A2-Erythroleukemia
From the text: as §2

[16] = test system: 1300 mel; test: IFN-γ release, co-culture with 1300 mel; assay type: cell-based; settings: co-cultured with 1300 mel
From the text: as §2

[17] = test system: COS-A2-SSX2 cells; test: CD137 (4-1BB) upregulation after co-culture with COS-A2-SSX2 cells; assay type: cell-based; settings: FACS after co-culture with COS-A2-SSX2 cells
[18] = test system: COS-A2-SSX-2 cells; test: Proliferation ([3H]-thymidine) on co-culture with COS-A2-SSX-2 cells; assay type: cell-based; settings: PBL from Donor 1 or Donor 2; FIGS. 6A, 6B
Description: PBLs from Donor 1 or Donor 2 that were untransduced (UT) or transduced with a vector comprising SEQ ID NO: 27 (SSX-2 TCR), SEQ ID NO: 29 (codon-optimized SSX-2 TCR), or SEQ ID NO: 30 (codon-optimized SSX-2 TCR including mouse constant region) were co-cultured with COS-A2-SSX-2 cells. Proliferation in terms of [^3H]-thymidine incorporation (CPM) was measured and is shown in FIG. 6A (Donor 1) and 6B (Donor 2).

[19] = test system: SSX2+/HLA-A2+ target cells; test: Proliferation ([3H]-thymidine) on co-culture with tumor cells; assay type: cell-based; settings: 1300 mel, 624 mel, 888 mel, SK mel 37 or COS-A2-SSX-2 cells; FIGS. 9A-9E
From the text: In another experiment, PBLs transduced as described in this example were co-cultured with 1300 mel cells, 624 mel cells, 888 mel cells, SK mel 37 cells, or COS-A2-SSX-2 cells.

[20] = test system: SSX-2+/HLA-A2+ target cells; test: Percent lysis of target cells; assay type: cell-based; settings: FIGS. 7A-D and 8A-D, various E:T ratios
[21] = Table 5 donor, co-cultured with Skmel 37 mel
[22] = Table 6 donor, co-cultured with Skmel 37

Molecule | interferon-γ levels ([1]; Table 5 donor) [pg/mL] | interferon-γ levels ([1]; Table 6 donor) [pg/mL] | interferon-γ levels ([2]; Table 5 donor) [pg/mL] | interferon-γ levels ([2]; Table 6 donor) [pg/mL] | interferon-γ levels ([3]; Table 5 donor) [pg/mL] | interferon-γ levels ([3]; Table 6 donor) [pg/mL] | interferon-γ levels ([4]; Table 5 donor) [pg/mL] | interferon-γ levels ([4]; Table 6 donor) [pg/mL] | interferon-γ levels ([5]; Table 5 donor) [pg/mL] | interferon-γ levels ([5]; Table 6 donor) [pg/mL] | interferon-γ levels ([6]; Table 5 donor) [pg/mL] | interferon-γ levels ([6]; Table 6 donor) [pg/mL] | interferon-γ levels ([7]; Table 5 donor) [pg/mL] | interferon-γ levels ([7]; Table 6 donor) [pg/mL] | interferon-γ levels ([8]; Table 5 donor) [pg/mL] | interferon-γ levels ([8]; Table 6 donor) [pg/mL] | interferon-γ levels ([9]; Table 5 donor) [pg/mL] | interferon-γ levels ([9]; Table 6 donor) [pg/mL] | interferon-γ levels [10, 21] [pg/mL] | interferon-γ levels [10, 22] [pg/mL] | further results
B1 | 2338 | 601 | 711 | 1067 | 30 | 30 | 64142 | 138324 | 37547 | 47059 | 46304 | 51173 | 890 | 768 | 37522 | 49112 | 19223 | 21418 | 8869 | 11445 | interferon-γ levels ([11]; Table 5 donor): 2527 pg/mL; interferon-γ levels ([11]; Table 6 donor): 22509 pg/mL; interferon-γ levels ([12]; Table 5 donor): 164 pg/mL; interferon-γ levels ([12]; Table 6 donor): 290 pg/mL; interferon-γ levels ([13]; Table 5 donor): 1714 pg/mL; interferon-γ levels ([13]; Table 6 donor): 2784 pg/mL; interferon-γ levels ([14]; Table 5 donor): 193 pg/mL; interferon-γ levels ([14]; Table 6 donor): 120 pg/mL; interferon-γ levels ([15]; Table 5 donor): 21325 pg/mL; interferon-γ levels ([15]; Table 6 donor): 13610 pg/mL; interferon-γ levels ([16]; Table 5 donor): 2596 pg/mL; interferon-γ levels ([16]; Table 6 donor): 3052 pg/mL; activation marker CD137 (4-1BB) [17]: upregulated; proliferation ([3H]-thymidine incorporation) [18]: proliferate in response to co-culture with COS-A2-SSX-2 cells; proliferation ([3H]-thymidine incorporation) [19]: proliferate in response to co-culture with SSX2+/HLA-A2+ target cells; lytic activity (percent lysis) [20]: specific lytic activity against SSX-2^+/HLA-A2^+ target cells
B2 | 2827 | 553 | 802 | 1005 | 30 | 38 | 56893 | 164314 | 46999 | 57693 | 51092 | 40047 | 1122 | 932 | 37258 | 47273 | 19027 | 20027 | 10401 | 10630 | interferon-γ levels ([11]; Table 5 donor): 2221 pg/mL; interferon-γ levels ([11]; Table 6 donor): 9857 pg/mL; interferon-γ levels ([12]; Table 5 donor): 327 pg/mL; interferon-γ levels ([12]; Table 6 donor): 554 pg/mL; interferon-γ levels ([13]; Table 5 donor): 2752 pg/mL; interferon-γ levels ([13]; Table 6 donor): 3328 pg/mL; interferon-γ levels ([14]; Table 5 donor): 270 pg/mL; interferon-γ levels ([14]; Table 6 donor): 142 pg/mL; interferon-γ levels ([15]; Table 5 donor): 17437 pg/mL; interferon-γ levels ([15]; Table 6 donor): 13555 pg/mL; interferon-γ levels ([16]; Table 5 donor): 2715 pg/mL; interferon-γ levels ([16]; Table 6 donor): 3460 pg/mL; activation marker CD137 (4-1BB) [17]: upregulated; proliferation ([3H]-thymidine incorporation) [18]: proliferate in response to co-culture with COS-A2-SSX-2 cells; proliferation ([3H]-thymidine incorporation) [19]: proliferate in response to co-culture with SSX2+/HLA-A2+ target cells; lytic activity (percent lysis) [20]: specific lytic activity against SSX-2^+/HLA-A2^+ target cells
